In patent US20240368668A1, “SUBSTRATES AND BIOMARKERS OF ADAMTS7” (The Broad Institute, Inc., priority 2021, published 2024):
Square brackets hold non-standard residues; d marks the D form. Ends that are not written are not given here. Met(O) = CS(=O)CC[C@H](N)C(=O)O

Molecular target: T1, mouse ADAMTS7 (Mus musculus, UniProt Q68SA9)
T1 construct: Full-length mouse Adamts7 1-1857 (Uniprot Q68SA9, WT or E373Q catalytic mutant); expressed in transfected cells; host or cells: Human Coronary Artery Smooth Muscle Cells (HCA-SMC, Lonza), adenovirus 50 MOI
T1 sequence (Q68SA9 221-1657): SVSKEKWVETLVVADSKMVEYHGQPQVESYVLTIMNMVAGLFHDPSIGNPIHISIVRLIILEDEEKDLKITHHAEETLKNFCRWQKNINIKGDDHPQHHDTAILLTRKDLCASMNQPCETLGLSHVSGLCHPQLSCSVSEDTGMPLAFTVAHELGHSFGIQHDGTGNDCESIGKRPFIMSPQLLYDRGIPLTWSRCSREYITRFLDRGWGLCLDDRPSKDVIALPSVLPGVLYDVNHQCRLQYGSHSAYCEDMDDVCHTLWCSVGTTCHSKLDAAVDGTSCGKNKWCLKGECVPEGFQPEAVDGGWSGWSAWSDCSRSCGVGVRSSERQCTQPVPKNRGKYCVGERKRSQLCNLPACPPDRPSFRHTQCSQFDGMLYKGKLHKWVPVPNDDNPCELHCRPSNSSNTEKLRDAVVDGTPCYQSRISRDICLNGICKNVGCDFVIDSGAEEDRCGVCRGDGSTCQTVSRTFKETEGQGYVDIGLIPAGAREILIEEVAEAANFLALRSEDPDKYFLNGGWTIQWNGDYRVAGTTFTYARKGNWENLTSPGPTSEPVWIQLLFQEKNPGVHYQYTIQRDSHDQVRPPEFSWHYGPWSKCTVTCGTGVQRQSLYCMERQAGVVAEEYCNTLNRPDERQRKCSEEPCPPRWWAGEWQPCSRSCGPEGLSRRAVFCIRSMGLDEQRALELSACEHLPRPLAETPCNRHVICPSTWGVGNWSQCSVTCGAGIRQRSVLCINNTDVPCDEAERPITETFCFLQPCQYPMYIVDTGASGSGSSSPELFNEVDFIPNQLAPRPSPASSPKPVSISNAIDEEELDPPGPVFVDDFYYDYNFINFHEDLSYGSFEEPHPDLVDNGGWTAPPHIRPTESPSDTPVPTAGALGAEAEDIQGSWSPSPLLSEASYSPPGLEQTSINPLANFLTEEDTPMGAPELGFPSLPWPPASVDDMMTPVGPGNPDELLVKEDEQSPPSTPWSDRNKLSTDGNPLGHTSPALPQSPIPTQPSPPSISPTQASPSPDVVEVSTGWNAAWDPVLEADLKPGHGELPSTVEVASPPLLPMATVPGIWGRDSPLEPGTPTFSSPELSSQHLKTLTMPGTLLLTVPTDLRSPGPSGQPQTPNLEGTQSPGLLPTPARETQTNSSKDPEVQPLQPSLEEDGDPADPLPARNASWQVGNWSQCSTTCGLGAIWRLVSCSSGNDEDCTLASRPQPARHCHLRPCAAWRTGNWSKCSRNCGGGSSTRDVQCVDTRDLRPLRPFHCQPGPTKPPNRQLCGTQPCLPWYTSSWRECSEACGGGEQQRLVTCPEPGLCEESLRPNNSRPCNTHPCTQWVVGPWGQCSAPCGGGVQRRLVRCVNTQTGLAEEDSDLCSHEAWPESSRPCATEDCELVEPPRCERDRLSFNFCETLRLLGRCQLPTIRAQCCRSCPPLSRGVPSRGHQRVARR
Assay: TMT10 TAILS N-terminomics, HUVEC experiment (process replicates, trypsin/AspN digest)
Assay type: cell-based, human
Conditions: HUVEC TAILS HC; log fold change of N-terminal peptide, Ad-mADAMTS7 WT over Luc
Procedure, shortened: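 Full-length mouse ADAMTS7 (WT or E373Q mutant, C-terminal 3xFLAG) or luciferase was transduced via adenovirus, 50 MOI, into HCA-SMC (SMC1, SMC2) or HUVEC. SMC1: pooled media, technical triplicates 400 ug; SMC2: process triplicates 300 ug; HUVEC: process triplicates 200 ug, bFGF2 10 ng/ml.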

Substance	logFC.mWT.over.Luc
ASMT_321 (LSSAGFR; listed as Homo sapiens)	2.18
BICD1_280 (NNDDKMNGHIHGPLVKLNGDYR; listed as Homo sapiens)	1.23
CLU_267 (FQHPPTEFIR; listed as Homo sapiens)	1.56
CTGF_173 (TVVGPALAAYR; listed as Homo sapiens)	2.94
CTGF_174 (VVGPALAAYR; listed as Homo sapiens)	2.13
FN1_1624 (LVQTAVTTIPAPT; listed as Homo sapiens)	1.40
FN1_1743 (WESPQGQVSR; listed as Homo sapiens)	2.86
LTBP2_129 (QQQPAPR; listed as Homo sapiens)	4.83
LTBP2_253 (GEGTLAR; listed as Homo sapiens)	2.90
LTBP3_164 (LSTGALPPLAPEG; listed as Homo sapiens)	1.82
LTBP3_205 (HAAFLVPLGPGQISA; listed as Homo sapiens)	2.41
LTBP3_221 (VQAPPPVVNVR; listed as Homo sapiens)	2.72
MCFD2_55 (HLEGVINKPEA; listed as Homo sapiens)	1.13
PSAP_301 (LVEPIKKH; listed as Homo sapiens)	2.38
PTBP1_376 (AAAAAGR; listed as Homo sapiens)	1.11
PZP_578 (HAHLQVAAAPQSLCALR; listed as Homo sapiens)	2.11
THBS1_630 (FGQGVEHATANK; listed as Homo sapiens)	2.27
UQCRH_76 (HGSPNNSERAMRAVGE[Met(O)]CKGPGAAR; listed as Homo sapiens)	1.39
ZYX_244 (PVSLANTQPR; listed as Homo sapiens)	1.20
